For experiment [1], the target named is T1, recombinant human TIMP-3 (human, UniProt P35625 24-211).
T1 sequence (looked up): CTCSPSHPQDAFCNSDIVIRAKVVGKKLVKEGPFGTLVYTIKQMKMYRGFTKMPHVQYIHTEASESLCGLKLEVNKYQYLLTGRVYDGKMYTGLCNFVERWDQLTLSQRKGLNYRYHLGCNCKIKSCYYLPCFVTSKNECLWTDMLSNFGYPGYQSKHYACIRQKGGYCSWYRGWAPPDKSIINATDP
The experiment can be described thus: cell-based or functional assay.

The target in the next experiment is MMP-13 (UniProt P45452 20-471, limits assumed). The experiment can be described thus: cell-based or functional assay.
For experiment [2], the target named is T2, recombinant TIMP-3 (human or mouse; Table 2 does not say which).
T2 construct: The methods say 'human or mouse TIMP-3'
The experiment in a line: binding ELISA, Assay 2.

Experiment [3] has as its target T2, recombinant TIMP-3 (human or mouse; …). The experiment in a line: AlphaScreen, biotinylated TIMP-3, Assay 1. On the procedure:
Peptides were also evaluated by AlphaScreen® (Amplified Luminescent Proximity Homogeneous Assay; PerkinElmer, Waltham, Mass.) a very sensitive non-radioactive homogeneous assay technology that allows the screening of a large range of biological interactions and activities, substantially according to the manufacturer's instructions. Briefly, all dilutions are made in AlphaScreen® Buffer: [40 mM HEPES pH 7.5, 100 mM NaCl, 1 mM CaCl2, 0.1% BSA, 0.05% Tween-20]. The LRP-1 peptides are titrated in a separate polypropylene 96-well plate (Falcon) starting at 4 microM concentration and then diluted serially 3-fold for 12-points, with the last point buffer only. First 2 microL/well of protein titration curve is added to white, small volume, 384-well assay plate (Greiner Bio-One, Stonehouse, UK) in duplicate. Next, 2 microL of biotinylated (AFS, in-house conjmicroGation) recombinant human or mouse TIMP-3, is added at 12 nM (or 3 nM final assay concentration) to the assay plate. Lastly, in subdued light 4 microL of a mixture of streptavidin donor beads, anti-mouse IgG acceptor beads (PerkinElmer) both diluted to 20 microG/mL (10 microG/mL final assay concentration) and 2 nM (1 nM final concentration) rat-anti-HA (clone3F10)-HRP (Roche Diagnostics) is added to the plates. Plates containing 8 microL final assay volme are covered with TopSeal A (to prevent evaporation), spun quickly at 1000 rpm, and incubated overnight (covered with foil to prevent light exposure) before reading on Fusion plate reader (PerkinElmer) using AlphaScreen® parameters (excitation 680 nm and emission 520-620 nm). Data is analyzed using GraphPad Prism 4.01 software. Binding to TIMP-3 is reported as total signal (cps).
On the technique in general: In Alpha technology, singlet oxygen from a donor bead excites a nearby acceptor bead.

Experiment [4] has as its target T1, recombinant human TIMP-3. The experiment in a line: indirect ELISA, huTIMP-3 captured by anti-TIMP-3 clone 277128. On the procedure: (§1) Then 100 microL/well of the diluted LRP-1 peptide titration is added to the TIMP-3 coated plate and allowed to bind for 1.5 hour at room temperature with shaking. After incubation, the plate is washed three times with 200 microL/well of wash buffer 2 (TBS [pH 7.5], 1 mM CaCl₂, 0.02% Tween-20). […] The assay plate is then washed three times with 200 microL/well with wash buffer 2. The plate is developed by adding 100 microL/well of 1:1 mixture of TMB and H₂O₂ (Pierce, Fisher Thermo Scientific, Rockford Il.), the reaction is stopped by adding 100 microL/well 2NH₂SO₄ (VWR), and read on a SpectraMax microplate reader (Molecular Devices, Sunnyvale, Calif.) at OD450 nm using SOFTmax Pro software version 3.1.2. Data is analyzed using GraphPad Prism 4.01 software. Binding of LRP-1 peptides to TIMP-3 is expressed as binding EC50.
After incubation, the plate contents are discarded and 250 microL/well of blocking buffer (1% BSA, TBS [pH 7.5], 1 mM CaCl₂) is added to the plate which is incubated with shaking for 1 hour at room temperature. The plate is then washed three times with 200 microL/well with wash buffer 1 (TBS [pH 7.5], 1 mM CaCl₂) followed by the addition of 100 microL of 20 nM recombinant human TIMP-3. The plate is incubated at room temperature for 1 hour. The LRP-1 peptides are titrated as described previously, and 100 microL/well of the diluted LRP-1 peptide titration is added to the TIMP-3 coated plate and allowed to bind for 1.5 hour at room temperature with shaking. After incubation, the plate is washed and the ELISA performed substantially as described previously for the direct binding ELISA.

Experiment [5] deals with T1, recombinant human TIMP-3. The experiment in a line: direct ELISA, coated huTIMP-3. On the procedure:
as §1, with “After incubation, the coating solution is removed and replaced with 250 microL/well of blocking buffer (1% BSA, TBS [pH 7.5], 1 mM CaCl₂) and incubated with shaking for 1 hour at room temperature. The plates are then washed three times with 200 microL/well with wash buffer 1 (TBS [pH 7.5], 1 mM CaCl₂). The LRP-1 peptides are titrated in assay buffer (0.1% BSA, TBS [pH 7.5], 1 mM CaCl₂, 0.02% Tween-20) in a separate polypropylene non-treated round-bottom 96-well plate (BD Falcon™) starting at 1 microM concentration and then diluted serially 4-fold for 8-points, with the last point buffer only. Then” for “Then”

For another experiment, the target named is T3, recombinant mouse TIMP-3 (mouse, UniProt P39876 24-211).
T3 construct: also called MuTIMP-3
T3 sequence (looked up): T1 sequence (looked up) with T51S, D87E, Q103H, I183S
The experiment can be described thus: direct ELISA, coated muTIMP-3. On the procedure:
as §1, with “After incubation, the coating solution is removed and replaced with 250 microL/well of blocking buffer (1% BSA, TBS [pH 7.5], 1 mM CaCl₂) and incubated with shaking for 1 hour at room temperature. The plates are then washed three times with 200 microL/well with wash buffer 1 (TBS [pH 7.5], 1 mM CaCl₂). The LRP-1 peptides are titrated in assay buffer (0.1% BSA, TBS [pH 7.5], 1 mM CaCl₂, 0.02% Tween-20) in a separate polypropylene non-treated round-bottom 96-well plate (BD Falcon™) starting at 1 microM concentration and then diluted serially 4-fold for 8-points, with the last point buffer only. Then” for “Then”

Here are results for 16 molecules from US20120231013A1 (Amgen, published 2012).

One may read the EC50 as the concentration at which the effect is half-maximal.

Substitutions are numbered along the chain they refer to. Where “and” joins values, the source holds several entries; their conditions need not be identical. Equal values may be shown once.

B1: LRP-1 peptide LA3 (peptide)
chain: not shown
For B1, in the experiment with recombinant human TIMP-3 [1], the “% of the inhibitory activity of TIMP-3 + peptide compared to TIMP-3 alone, 80 nM” value (“% of the inhibitory activity … 80 nM” below) came to 84%; the “% of the inhibitory activity of TIMP-3 + peptide compared to TIMP-3 alone, 400 nM” value (“% of the inhibitory activity … 400 nM” below) worked out at 80%; the “% of the inhibitory activity of TIMP-3 + peptide compared to TIMP-3 alone, 2000 nM” value (shortened to “% of the inhibitory activity … 2000 nM”) amounted to 109%. The “Direct Inhibition of MMP13 (% decrease), 1000 nM” value with MMP-13 was 7%.

B2: LRP-1 peptide LA16 (peptide)
chain: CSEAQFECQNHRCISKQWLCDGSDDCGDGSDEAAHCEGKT
Regarding B2, in the experiment with recombinant human TIMP-3 [1], the “% of the inhibitory activity of TIMP-3 + peptide compared to TIMP-3 alone, 16 nM” value (“% of the inhibitory activity … 16 nM” for short) stood at 105%; the “% of the inhibitory activity … 80 nM” value stood at 101%; the “% of the inhibitory activity … 400 nM” value was 52%; the “% of the inhibitory activity … 2000 nM” value was found to be 89%. In addition, the “Direct Inhibition of MMP13 (% decrease), 1000 nM” value with MMP-13 came to 20%.

B3: LRP-1 peptide LA20 (peptide)
chain: CNASSQFLCSSGRCVAEALLCNGQDDCGDSSDERGCHINE
As to B3, the “Direct Inhibition of MMP13 (% decrease), 1000 nM” value in the experiment with MMP-13 turned out to be 0%.

B4: LRP-1 peptide LA28 (peptide)
chain: not shown
notes: Tags implied (Ni-NTA, anti-HA detection), not described
As to B4, the half-maximal effective concentration (EC50) stood at 0.3 µM in experiment [2] and 0.972 µM with recombinant human TIMP-3 [4]. Besides, the “Direct Inhibition of MMP13 (% decrease), 1000 nM” value with MMP-13 came to 32%. Moreover, the “total signal (cps)” value in experiment [3] worked out at 2200 cps.

B5: LRP-1 peptide LA26-28 (peptide)
chain: CEPYQFRCKNNRCVPGRWQCDYDNDCGDNSDEESCTPRPCSESEFSCANGRCIAGRWKCDGDHDCADGSDEKDCTPRCDMDQFQCKSGHCIPLRWRCDADADCMDGSDEEACGTGVRT
In the case of B5, in the experiment with recombinant human TIMP-3 [1], the “% of the inhibitory activity … 16 nM” value amounted to 100%; the “% of the inhibitory activity … 80 nM” value stood at 100%; the “% of the inhibitory activity … 400 nM” value was 104%. Further, in the experiment with MMP-13, the “Direct Inhibition of MMP13 (% decrease), 1000 nM” value came out at 53%.

B6: LRP-1 peptide LA21-23 (peptide)
chain: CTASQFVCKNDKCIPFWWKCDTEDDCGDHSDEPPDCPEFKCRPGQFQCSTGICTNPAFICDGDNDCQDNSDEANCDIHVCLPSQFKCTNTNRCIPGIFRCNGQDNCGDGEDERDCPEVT
In the case of B6, in the experiment with recombinant human TIMP-3 [1], the “% of the inhibitory activity … 16 nM” value worked out at 97%; the “% of the inhibitory activity … 80 nM” value was 96%; the “% of the inhibitory activity … 400 nM” value was 100%; the “% of the inhibitory activity … 2000 nM” value turned out to be 107%. The “Direct Inhibition of MMP13 (% decrease), 1000 nM” value with MMP-13 is 19%.

B7: LRP-1 peptide LA21 (peptide)
chain: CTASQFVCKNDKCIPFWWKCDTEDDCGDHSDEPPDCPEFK
notes: as for B4
For B7, the concentration giving a half-maximal response (EC50) in experiment [2] worked out at 1.02 µM; with recombinant human TIMP-3 [5], 0.303 µM; in the experiment with recombinant mouse TIMP-3, 0.206 µM; with recombinant human TIMP-3 [4] it was 0.313 µM. Moreover, in the experiment with MMP-13, the “Direct Inhibition of MMP13 (% decrease), 1000 nM” value was -2%. Also, the “total signal (cps)” value in experiment [3] was 2200 cps.

B8: LRP-1 peptide LA11-20 (peptide)
chain: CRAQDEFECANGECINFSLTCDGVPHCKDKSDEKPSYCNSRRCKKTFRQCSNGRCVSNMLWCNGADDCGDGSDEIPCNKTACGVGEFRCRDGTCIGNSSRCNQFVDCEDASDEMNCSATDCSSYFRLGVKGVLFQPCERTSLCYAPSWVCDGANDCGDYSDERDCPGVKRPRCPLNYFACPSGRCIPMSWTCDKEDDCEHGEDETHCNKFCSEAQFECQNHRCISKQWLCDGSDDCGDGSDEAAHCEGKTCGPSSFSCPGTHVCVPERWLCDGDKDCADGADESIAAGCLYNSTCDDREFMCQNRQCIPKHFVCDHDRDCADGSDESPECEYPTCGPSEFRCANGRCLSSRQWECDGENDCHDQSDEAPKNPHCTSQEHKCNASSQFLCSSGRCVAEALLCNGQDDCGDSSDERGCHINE
As to B8, the “Direct Inhibition of MMP13 (% decrease), 1000 nM” value with MMP-13 turned out to be 26%.

B9: LRP-1 peptide LA17 (peptide)
chain: CGPSSFSCPGTHVCVPERWLCDGDKDCADGADESIAAGCLYNST
notes: as for B4
As for B9, in the experiment with recombinant human TIMP-3 [1], the “% of the inhibitory activity … 80 nM” value is 93%; the “% of the inhibitory activity … 400 nM” value was determined as 77%; the “% of the inhibitory activity … 2000 nM” value worked out at 77%. Further, the “Direct Inhibition of MMP13 (% decrease), 1000 nM” value with MMP-13 is 41%. Also, the EC50 with recombinant human TIMP-3 [5] was determined as 0.886 µM. In addition, the “total signal (cps)” value in experiment [3] was 2200 cps.

B10: LRP-1 peptide LA22 (peptide)
chain: not shown
notes: as for B4
As for B10, the 50% effective concentration (EC50) in experiment [2] was 0.426 µM; with recombinant human TIMP-3 [5], 0.456 µM and 0.34 µM; in the experiment with recombinant mouse TIMP-3, 0.394 µM and 0.478 µM; in the experiment with recombinant human TIMP-3 [4] it was 0.185 µM and 0.2 µM. Besides, the “Direct Inhibition of MMP13 (% decrease), 1000 nM” value with MMP-13 was determined as 59%. In addition, the “total signal (cps)” value in experiment [3] was determined as 2200 cps.

B11: LRP-1 peptide LA6 (peptide)
chain: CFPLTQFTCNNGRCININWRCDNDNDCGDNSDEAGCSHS
notes: as for B4
As for B11, the concentration giving a half-maximal response (EC50) in experiment [2] was found to be 1.21 µM; in the experiment with recombinant human TIMP-3 [5], 0.095 µM; with recombinant mouse TIMP-3, 0.038 µM; with recombinant human TIMP-3 [4], 0.009 µM. In addition, the “Direct Inhibition of MMP13 (% decrease), 1000 nM” value in the experiment with MMP-13 was 57%. Moreover, the “total signal (cps)” value in experiment [3] stood at 2200 cps.

B12: LRP-1 peptide LA7 (peptide)
chain: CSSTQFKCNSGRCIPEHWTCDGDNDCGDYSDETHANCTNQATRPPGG
notes: The end 1061 is inferred from the end of LA5-7; Tags implied, not described
In the case of B12, the EC50 in experiment [2] was roughly 2.5 µM. For the same molecule, in experiment [3], the “total signal (cps)” value came out at 2200 cps.

B13: LRP-1 peptide LA23 (peptide)
chain: CLPSQFKCTNTNRCIPGIFRCNGQDNCGDGEDERDCPEVT
In the case of B13, in the experiment with recombinant human TIMP-3 [1], the “% of the inhibitory activity … 16 nM” value is 104%; the “% of the inhibitory activity … 80 nM” value was 107%; the “% of the inhibitory activity … 2000 nM” value was 84%. In addition, the “Direct Inhibition of MMP13 (% decrease), 1000 nM” value with MMP-13 was found to be 46%.

B14: LRP-1 peptide LA27 (peptide)
chain: not shown
For B14, in the experiment with MMP-13, the “Direct Inhibition of MMP13 (% decrease), 1000 nM” value is 47%.

B15: LRP-1 peptide LA5 (peptide)
chain: not shown
Consider B15, for which the “Direct Inhibition of MMP13 (% decrease), 1000 nM” value in the experiment with MMP-13 stood at 69%.

B16: LRP-1 peptide LA4-5 (peptide)
chain: CPSDRFKCENNRCIPNRWLCDGDNDCGNSEDESNATCSARTCPPNQFSCASGRCIPISWTCDLDDDCGDRSDESASCAYPT
As for B16, in the experiment with recombinant human TIMP-3 [1], the “% of the inhibitory activity … 80 nM” value came out at 101% and the “% of the inhibitory activity … 2000 nM” value is 104%. The “Direct Inhibition of MMP13 (% decrease), 1000 nM” value with MMP-13 turned out to be 26%.
